Measurements as given in paper PMC5768738, “Structure of a MacAB-like efflux pump from Streptococcus pneumoniae” (Nature Communications, 2018).

Target: the molecule itself
Assay: crystal structure; Se-Met Spr0693_(59–324) T197M/I317M, hanging drop at 12 °C, sodium acetate pH 4.5; SAD, 3.0 Å; three molecules in the asymmetric unit

B1: Spr0693_(59–324) T197M/I317M, selenomethionine-labelled (domain or fragment, Streptococcus pneumoniae R6, UniProt Q8DQF9 59-324, looked up)
chain: SVLLSGTVTAKNEQYVYFDASKGDLDEILVSVGDKVSEGQALVKYSSSEAQAAYDSASRAVARADRHINELNQARNEAASAPAPQLPAPVGGEDATVQSPTPVAGNSVASIDAQLGDARDARADAAAQLSKAQSQLDAMTVLSTLEGTVVEVNSNVSKSPTGASQVMVHIVSNENLQVKGELSEYNLANLSVGQEVSFTSKVYPDKKWTGKLSYISDYPKNNGEAASPAAGNNTGSKYPYTIDVTGEVGDLKQGFSVNMEVKSKTK
modifications: selenomethionine instead of methionine
notes: Spr0693, Streptococcus pneumoniae R6, residues Ser59–Lys324 (without the TM and the membrane-proximal domain); Plasmid built on the full-length spr0693 plasmid (C-terminal tag) and purified on Ni-NTA; The structure was solved from a Se-Met crystal of the T197M/I317M double mutant; residues Pro142–Gly163 are not traced; also called truncated Spr0693 (Ser59–Lys324); TM&MP-truncated Spr0693; source: …
stoichiometry N: 6
